Target: HlmI (thioredoxin-disulfide oxidoreductase-like dithiol oxidase of the holomycin gene cluster) (Streptomyces clavuligerus)
Experiment: SEC

stoichiometry N: 2
Substance: HlmI (thioredoxin-disulfide oxidoreductase-like dithiol oxidase of the holomycin gene cluster) (enzyme)

From article PMC3101288
